Data: patent US20150374848A1, “Methods for the Treatment of Head and Neck Squamous Cell Carcinoma” (Vigilant Biosciences, Inc., priority 2010, published 2015)
Entries after “also recorded” stand apart in the source; their conditions may differ.

Assays:
[1] = target: CD44 as expressed on human HNSCC cell lines (T.Tn, SCC-15, Detroit-562, CAL 27) (human) (UniProt P16070); assay: flow cytometry on CAL 27 cells, antibody at 20 ug/mL, duplicate samples
T.Tn HNSCC cell line = assay: FACS binding to HNSCC cell line T.Tn; set-up: species or system human; settings: antibody 20 μg/mL on ice 30 minutes
Procedure: (§1) The binding of chPTA-4621 and huPTA-4621 to HNSCC cell lines T.Tn, SCC-15, and Detroit-562 was assessed by flow cytometry (FACS). Cells were prepared for FACS by initially washing the cell monolayer with DPBS (without Ca^++ and Mg^++). Cell dissociation buffer (INVITROGEN, Burlington, ON; for T.Tn, SCC-15 and Detroit-562) was then used to dislodge the cells from their cell culture plates at 37° C. After centrifugation and collection, the cells were resuspended in DPBS containing MgCl2, CaCl2, and 2 percent fetal bovine serum at 4° C. (staining media) and counted, aliquoted to appropriate cell density, spun down to pellet the cells and resuspended in staining media at 4° C. in the presence of test antibodies (chimeric or humanized PTA-4621) or control antibodies (isotype control, anti-EGFR (C225; T.Tn, SCC-15 and Detroit-562). Isotype control and test antibodies were assessed at 20 μg/mL on ice for 30 minutes. For detection of bound antibody, an Alexa Fluor 546 conjugated secondary antibody was used. Prior to the addition of the secondary antibody, the cells were washed once with staining media. The secondary antibody in staining media was then added according to manufacturer's directions. […] Flow cytometric acquisition of the T.Tn, SCC-15 and Detroit-562 cells was assessed by running samples on a FACScan using the CellQuest software (BD Biosciences, Oakville, ON). […]

SCC-15 HNSCC cell line = assay: FACS binding to HNSCC cell line SCC-15; set-up: species or system human; settings: antibody 20 μg/mL on ice 30 minutes
Procedure: as §1

[2] = system: Detroit-562 HNSCC cell line; assay: FACS binding to HNSCC cell line Detroit-562; set-up: species or system human; settings: antibody 20 μg/mL on ice 30 minutes
Procedure: as §1

T.Tn HNSCC xenograft = assay: established T.Tn HNSCC xenograft model; type: in vivo; settings: 20 mg/kg i.p. three times per week
Procedure: With reference to FIGS. 2 and 3, 6 to 8 week old female SCID mice were implanted with 10 million T.Tn cells in 100 microliters PBS solution injected subcutaneously in the right flank. The mice were randomly divided into 2 treatment groups of 10. When the average tumor volume of the mice reached approximately 264-268 mm^3, 20 mg/kg of chPTA-4621 test antibody or buffer control was administered intraperitoneally to each cohort in a volume of 300 microliters after dilution from the stock concentration with a diluent that contained 2.7 mM KCl, 1 mM KH2PO4, 137 mM NaCl and 20 mM Na2HPO4. The antibody and control samples were then administered three times per week for the duration of the study. Tumor growth was measured about every 7 days with calipers. The study was completed after ten doses of antibody. Body weights of the animals were recorded once per week for the duration of the study. At the end of the study all animals were euthanized according to CCAC guidelines.

[3] = system: human breast cancer, liver cancer and prostate cancer xenografts; settings: preventative and established models; cited from earlier work

Humanized PTA-4621 (RO5429083) (antibody)
fold binding compared to the humanized IgG1 isotype control [1]: 37 fold

B1: chPTA-4621: chimeric PTA-4621 comprising VH and VL domains of SEQ ID NO:1 and SEQ ID NO:2 (antibody, V domains shown)
VH: EVKLLESGGGLVQPGGSLKLSCATSGFDFSRYWMSWVRQAPGKGLEWIGEVNPDSTSINYTPSLKDQFIISRDNAKNTLDLQMSKVSSEDTALYYCTRPNYYGSRYHYYAMDYWGQGTSVTVSS
VL: DIQMTQTTSSLSVSLGDRVTINCRASQDINNYLNWYQQKPDGTVKLLIYYTSRLHSGVPSRFSGSGSGTDFSLTISNLEKEDVATYFCQQGSTLPFTFGSGTKLEIK
modifications: human constant regions without entry; Synthetically generated peptide
binding to T.Tn cell line (FACS) (T.Tn HNSCC cell line): bind | binding to SCC-15 cell line (FACS) (SCC-15 HNSCC cell line): bind | binding to Detroit-562 cell line (FACS) [2]: bind | clinical signs of toxicity / tolerability (T.Tn HNSCC xenograft): no clinical signs of toxicity; also recorded: well-tolerated | mean body weight between the groups at end of treatment period (T.Tn HNSCC xenograft): no significant difference | reduction of tumor growth compared to buffer treated group (T.Tn HNSCC xenograft; ten doses, day 105, p=0.0068): 54.9%

B2: PTA-4621: murine monoclonal anti-CD44 antibody produced by hybridoma ATCC PTA-4621; VH SEQ ID NO:1, VL SEQ ID NO:2 (antibody, V domains shown)
VH: EVKLLESGGGLVQPGGSLKLSCATSGFDFSRYWMSWVRQAPGKGLEWIGEVNPDSTSINYTPSLKDQFIISRDNAKNTLDLQMSKVSSEDTALYYCTRPNYYGSRYHYYAMDYWGQGTSVTVSS
VL: DIQMTQTTSSLSVSLGDRVTINCRASQDINNYLNWYQQKPDGTVKLLIYYTSRLHSGVPSRFSGSGSGTDFSLTISNLEKEDVATYFCQQGSTLPFTFGSGTKLEIK
modifications: Synthetically generated peptide
anti-tumor effects in pre-clinical xenograft models [3]: significant anti-tumor effects
